Laboratory results published in publication PMC11116900, “Interaction among homeodomain transcription factors mediates ethylene biosynthesis during pear fruit ripening”.

How the values were obtained:
Test in all cases: EMSA; competed by 10x and 100x cold probe; EMSA according to a previous study (ref 35); buffer, salt, pH and temperature not given
Settings in all cases: protein: recombinant; tags: TF (trigger factor) fusion from pCold-TF; chain copies: 2; label: biotin
PbHB.G2.1 = target: T1, PbHB.G2.1 (pear (Pyrus; species  in the …, UniProt A0A5N5HPW9 1-368)
T1 sequence: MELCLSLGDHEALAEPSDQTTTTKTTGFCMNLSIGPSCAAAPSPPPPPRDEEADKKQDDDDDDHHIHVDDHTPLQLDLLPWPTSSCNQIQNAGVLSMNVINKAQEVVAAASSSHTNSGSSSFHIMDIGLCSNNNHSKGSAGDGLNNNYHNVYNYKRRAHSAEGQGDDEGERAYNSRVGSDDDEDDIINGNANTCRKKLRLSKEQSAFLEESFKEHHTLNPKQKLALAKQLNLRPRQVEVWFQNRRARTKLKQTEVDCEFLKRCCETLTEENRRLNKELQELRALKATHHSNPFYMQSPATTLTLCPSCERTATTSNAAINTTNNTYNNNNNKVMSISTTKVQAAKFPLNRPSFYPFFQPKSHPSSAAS

PbHB.G1 = target: T2, PbHB.G1 (pear (Pyrus; species  in the …, UniProt UPI0020301D10 1-344)
T2 sequence: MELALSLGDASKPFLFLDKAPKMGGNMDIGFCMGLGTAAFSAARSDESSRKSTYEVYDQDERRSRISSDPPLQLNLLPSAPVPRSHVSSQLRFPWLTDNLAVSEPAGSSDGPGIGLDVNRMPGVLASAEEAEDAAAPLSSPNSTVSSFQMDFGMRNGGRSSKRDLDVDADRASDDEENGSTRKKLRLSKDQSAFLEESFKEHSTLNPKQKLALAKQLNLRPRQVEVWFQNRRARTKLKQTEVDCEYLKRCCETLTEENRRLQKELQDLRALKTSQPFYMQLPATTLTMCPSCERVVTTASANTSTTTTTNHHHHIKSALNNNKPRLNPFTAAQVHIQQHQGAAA

PbHB.G7.2 = target: T3, PbHB.G7.2 (pear (Pyrus; species  in the …, UniProt A0A5N5HLN1 1-287)
T3 sequence: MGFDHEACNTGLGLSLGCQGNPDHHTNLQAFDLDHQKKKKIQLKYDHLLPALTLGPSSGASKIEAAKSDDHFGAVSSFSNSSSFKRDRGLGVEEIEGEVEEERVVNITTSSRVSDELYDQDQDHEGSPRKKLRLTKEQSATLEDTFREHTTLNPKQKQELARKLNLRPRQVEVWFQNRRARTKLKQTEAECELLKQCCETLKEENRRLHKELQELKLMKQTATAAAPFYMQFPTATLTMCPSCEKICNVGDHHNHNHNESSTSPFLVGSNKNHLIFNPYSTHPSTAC

B1: PbACS1b promoter P17 probe 2 (40 bp) (dsDNA)
DNA 1: CCTCAAGGAAATAGTAATACCCTTTAGATTTGAAGTCCTA
DNA 2: TAGGACTTCAAATCTAAAGGGTATTACTATTTCCTTGAGG
- binding result (PbHB.G2.1): binds

B2: PbACS1b promoter P16 probe 1 (33 bp) (dsDNA)
DNA 1: TTATATGTTGTATCTTATTTCATCGTTGATTAC
DNA 2: GTAATCAACGATGAAATAAGATACAACATATAA
- binding result (PbHB.G1): binds

B3: PbACS1b promoter P9 probe (34 bp) (dsDNA)
DNA 1: CTTATGGGTCGGTTTTTCTACATTTGAATTTTGA
DNA 2: TCAAAATTCAAATGTAGAAAAACCGACCCATAAG
- binding result (PbHB.G7.2): binds
